Assay results as given in the supplement of paper PMC10724198.
± gives the standard deviation of the averaged measurements.

How the values were obtained:
Saccharomyces cerevisiae [1] = test: protein stability index of tFT-peptide fusion (C-terminal peptide) (PSI (0-1 scale)); higher = more stable (slower turnover); conditions: genetic background: wild type; temperature: 30 C
Saccharomyces cerevisiae [2] = test: as above
Procedure: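 MPS profiling in S. cerevisiae of the tFT-X12 degron library: putative degron peptides plus stable controls, 12 aa, fused to the C-terminus of a sfGFP-mCherry timer. Cells are FACS-sorted into 8 mCherry/sfGFP bins and deep-sequenced. PSI runs from 0 (unstable) to 1 (stable). Backgrounds are wild type, das1Δ and doa10Δ at 30 °C, and wild type, das1Δ, cdc34-1 and cdc53-1 at 37 °C; 2-3 technical replicates each.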

[3] = genetic background: cdc34-1, temperature: 37 C
[4] = genetic background: cdc53-1, temperature: 37 C
[5] = genetic background: das1 deletion, temperature: 30 C
[6] = genetic background: das1 deletion, temperature: 37 C
[7] = genetic background: doa10 deletion, temperature: 30 C
[8] = genetic background: wild type, temperature: 30 C
[9] = genetic background: wild type, temperature: 37 C
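Further: PSI is a weighted mean of sequencing reads over stability bins, variants kept only with over 10 reads, mCherry proximal and sfGFP distal, peptide attached via GGGS linker.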

Row | Sequence | protein stability index (Saccharomyces cerevisiae [1]) | protein stability index (Saccharomyces cerevisiae [2]; [3]) | protein stability index (Saccharomyces cerevisiae [2]; [4]) | protein stability index (Saccharomyces cerevisiae [2]; [5]) | protein stability index (Saccharomyces cerevisiae [2]; [6]) | protein stability index (Saccharomyces cerevisiae [2]; [7]) | protein stability index (Saccharomyces cerevisiae [2]; [8]) | protein stability index (Saccharomyces cerevisiae [2]; [9])
1 | CSLFFFRLIFTL | 0.0826 ± 0.014 | 0.101 ± 0.025 | 0.185 ± 0.026 | 0.219 ± 0.032 | 0.339 ± 0.0091 | 0.0783 ± 0.0034 | 0.0603 ± 0.017 | 0.0702 ± 0.01
2 | CSLFYVFYRRLL | 0.38 ± 0.0078 | 0.595 ± 0.026 | 0.665 ± 0.012 | 0.556 ± 0.0087 | 0.649 ± 0.01 | 0.285 ± 0.011 | 0.342 ± 0.051 | 0.5212 ± 0.0043
3 | CSLRGLFLVVSV | 0.405 ± 0.0065 | 0.3652 ± 0.0033 | 0.396 ± 0.018 | 0.289 ± 0.032 | 0.474 ± 0.016 | 0.339 ± 0.025 | 0.292 ± 0.02 | 0.451 ± 0.01
4 | CTLVFLFFDLCS | 0.405 ± 0.053 | 0.413 ± 0.015 | 0.533 ± 0.087 | 0.333 ± 0.042 | 0.497 ± 0.03 | 0.263 ± 0.014 | 0.304 ± 0.018 | 0.4904 ± 0.0021
5 | CVCVVVCWRCGF | 0.481 ± 0.015 | 0.378 ± 0.018 | 0.465 ± 0.035 | 0.306 ± 0.031 | 0.509 ± 0.021 | 0.276 ± 0.0091 | 0.327 ± 0.034 | 0.4555 ± 0.0043
6 | CVIVCVLVWGRA | 0.24 ± 0.011 | 0.156 ± 0.025 | 0.269 ± 0.062 | 0.17 ± 0.046 | 0.329 ± 0.0095 | 0.152 ± 0.0045 | 0.172 ± 0.026 | 0.326 ± 0.013
7 | CVMWFLLSAYYL | 0.386 ± 0.061 | 0.358 ± 0.019 | 0.4288 ± 0.0029 | 0.265 ± 0.037 | 0.4336 ± 0.002 | 0.285 ± 0.013 | 0.267 ± 0.042 | 0.457 ± 0.042
8 | CVPAPCGRASCR | 0.698 ± 0.016 | 0.697 ± 0.013 | 0.7301 ± 0.0034 | 0.64 ± 0.041 | 0.743 ± 0.0076 | 0.63 ± 0.0079 | 0.658 ± 0.018 | 0.706 ± 0.022
9 | CYSLLFVSVILF | 0.218 ± 0.023 | 0.123 ± 0.091 | 0.158 ± 0.036 | 0.151 ± 0.015 | 0.271 ± 0.023 | 0.135 ± 0.01 | 0.138 ± 0.021 | 0.248 ± 0.0038
10 | CYVFLCGSFVFV | 0.471 ± 0.037 | 0.446 ± 0.011 | 0.499 ± 0.0084 | 0.36 ± 0.036 | 0.551 ± 0.014 | 0.317 ± 0.0068 | 0.351 ± 0.023 | 0.515 ± 0.012
11 | DFLSGRCIFFYV | 0.445 ± 0.0099 | 0.702 ± 0.029 | 0.797 ± 0.009 | 0.6451 ± 0.0058 | 0.762 ± 0.016 | 0.243 ± 0.014 | 0.277 ± 0.029 | 0.512 ± 0.011
12 | DFRGVSVIRHQV | 0.179 ± 0.047 | 0.615 ± 0.065 | 0.7327 ± 0.0024 | 0.64 ± 0.015 | 0.7366 ± 0.0065 | 0.126 ± 0.0098 | 0.147 ± 0.018 | 0.308 ± 0.052
13 | DFWCIIVIFLFR |  | 0.221 ± 0.004 | 0.348 ± 0.027 | 0.248 ± 0.015 | 0.393 ± 0.015 | 0.225 ± 0.0077 | 0.251 ± 0.031 | 0.34 ± 0.0045
14 | DRTRLFLLLIIA | 0.246 ± 0.042 | 0.179 ± 0.0023 | 0.256 ± 0.038 | 0.202 ± 0.028 | 0.4013 ± 0.0035 | 0.139 ± 0.0068 | 0.165 ± 0.016 | 0.273 ± 0.019
15 | DTHSRARAVLIA | 0.389 ± 0.086 | 0.656 ± 0.0091 | 0.719 ± 0.015 | 0.585 ± 0.016 | 0.704 ± 0.01 | 0.2366 ± 0.002 | 0.301 ± 0.019 | 0.509 ± 0.04
16 | DYARAWRTEVVC | 0.424 ± 0.01 | 0.393 ± 0.046 | 0.448 ± 0.025 | 0.328 ± 0.021 | 0.525 ± 0.016 | 0.288 ± 0.015 | 0.332 ± 0.017 | 0.5088 ± 0.0024
17 | EFEIALTLIRSI | 0.49 ± 0.057 | 0.665 ± 0.026 | 0.733 ± 0.0039 | 0.593 ± 0.01 | 0.726 ± 0.011 | 0.304 ± 0.009 | 0.361 ± 0.055 | 0.572 ± 0.031
18 | EFFILYFFLKVL | 0.199 ± 0.021 | 0.195 ± 0.007 | 0.274 ± 0.0064 | 0.21 ± 0.03 | 0.393 ± 0.0076 | 0.104 ± 0.01 | 0.116 ± 0.023 | 0.179 ± 0.0019
19 | EFVACFRLLVHG | 0.392 ± 0.014 | 0.3077 ± 0.003 | 0.368 ± 0.04 | 0.278 ± 0.021 | 0.441 ± 0.012 | 0.2322 ± 0.0015 | 0.269 ± 0.027 | 0.4091 ± 0.0033
20 | EGLCCGAYFLVF | 0.571 ± 0.14 | 0.695 ± 0.038 | 0.7228 ± 0.00076 | 0.584 ± 0.034 | 0.709 ± 0.0098 | 0.558 ± 0.014 | 0.587 ± 0.035 | 0.6751 ± 0.0057
21 | EGLDVRILIQVI | 0.294 ± 0.0068 | 0.0334 ± 0.016 | 0.0735 ± 0.0072 | 0.179 ± 0.025 | 0.197 ± 0.0041 | 0.1362 ± 0.0008 | 0.164 ± 0.025 | 0.154 ± 0.019
22 | EKKKKKRKNKIK |  | 0.691 ± 0.0098 | 0.727 ± 0.037 | 0.655 ± 0.024 | 0.7221 ± 0.0038 | 0.649 ± 0.016 | 0.652 ± 0.025 | 0.661 ± 0.028
23 | EKTKRGLIQRVV | 0.3931 ± 0.0028 | 0.68 ± 0.064 | 0.721 ± 0.012 | 0.641 ± 0.021 | 0.693 ± 0.015 | 0.247 ± 0.016 | 0.293 ± 0.046 | 0.554 ± 0.025
24 | ESRRGILFIYIN | 0.13 ± 0.005 | 0.325 ± 0.049 | 0.601 ± 0.027 | 0.475 ± 0.025 | 0.647 ± 0.038 | 0.0808 ± 0.028 | 0.0867 ± 0.0055 | 0.0749 ± 0.024
25 | FHSALIAIAAYV |  | 0.135 ± 0.012 | 0.128 ± 0.032 | 0.201 ± 0.029 | 0.2396 ± 0.00086 | 0.162 ± 0.024 | 0.202 ± 0.016 | 0.217 ± 0.0052
26 | LSLLILFVLLSF |  | 0.444 ± 0.014 | 0.476 ± 0.016 | 0.355 ± 0.042 | 0.449 ± 0.023 | 0.3914 ± 0.00083 | 0.385 ± 0.024 | 0.463 ± 0.039
27 | LVGYSVFVLFFS |  | 0.282 ± 0.015 | 0.5056 ± 0.0012 | 0.253 ± 0.034 | 0.498 ± 0.012 | 0.21 ± 0.0089 | 0.226 ± 0.048 | 0.426 ± 0.037

Row | Sequence | protein stability index (Saccharomyces cerevisiae [1]) | protein stability index (Saccharomyces cerevisiae [2]; [3]) | protein stability index (Saccharomyces cerevisiae [2]; [4]) | protein stability index (Saccharomyces cerevisiae [2]; [5]) | protein stability index (Saccharomyces cerevisiae [2]; [6]) | protein stability index (Saccharomyces cerevisiae [2]; [7]) | protein stability index (Saccharomyces cerevisiae [2]; [8]) | protein stability index (Saccharomyces cerevisiae [2]; [9])
28 | PLPSRLRRFVPV |  | 0.656 ± 0.05 | 0.701 ± 0.0078 | 0.595 ± 0.0072 | 0.7072 ± 0.0018 | 0.613 ± 0.018 | 0.62 ± 0.014 | 0.6801 ± 0.0039
29 | PPCSLLPPPPAP |  | 0.624 ± 0.049 | 0.7196 ± 0.0057 | 0.682 ± 0.043 | 0.713 ± 0.0088 | 0.715 ± 0.023 | 0.674 ± 0.056 | 0.687 ± 0.024
30 | RGGVRGVRSGRG |  | 0.588 ± 0.016 | 0.716 ± 0.047 | 0.478 ± 0.014 | 0.565 ± 0.026 | 0.4741 ± 0.0046 | 0.485 ± 0.02 | 0.631 ± 0.045
31 | SLTHTPLGVTRT |  | 0.657 ± 0.033 | 0.748 ± 0.012 | 0.6409 ± 0.0026 | 0.72832 ± 0.00066 | 0.635 ± 0.013 | 0.642 ± 0.011 | 0.704 ± 0.0086
32 | TGGGGRVSLGVG |  | 0.359 ± 0.066 | 0.416 ± 0.0099 | 0.356 ± 0.013 | 0.42 ± 0.0044 | 0.377 ± 0.0077 | 0.359 ± 0.016 | 0.413 ± 0.0088
33 | TLDWKFGWGGIG |  | 0.603 ± 0.011 | 0.579 ± 0.016 | 0.566 ± 0.024 | 0.6477 ± 0.0045 | 0.5685 ± 0.002 | 0.574 ± 0.021 | 0.645 ± 0.018
34 | VLRFVYDLVSAL |  | 0.559 ± 0.036 | 0.599 ± 0.011 | 0.531 ± 0.029 | 0.643 ± 0.036 | 0.334 ± 0.0067 | 0.342 ± 0.021 | 0.435 ± 0.015
35 | VQTVRLVFQVLA |  | 0.307 ± 0.0063 | 0.373 ± 0.049 | 0.25 ± 0.033 | 0.4 ± 0.0099 | 0.106 ± 0.0074 | 0.125 ± 0.031 | 0.207 ± 0.018
36 | VRWALLGVVVEG |  | 0.388 ± 0.014 | 0.398 ± 0.0062 | 0.293 ± 0.029 | 0.4742 ± 0.00066 | 0.246 ± 0.0085 | 0.286 ± 0.027 | 0.428 ± 0.013
37 | YSGRCGVKLFNG | 0.705 ± 0.073 |  |  |  |  |  |  | 
38 | YSGSPPFPLSRL | 0.801 ± 0.027 |  |  |  |  |  |  | 
39 | YSIAYGVLWRYR | 0.5687 ± 0.0051 |  |  |  |  |  |  | 
40 | YSLIPLSSISQH | 0.685 ± 0.074 |  |  |  |  |  |  | 
41 | YSNCPQPRVISD | 0.6 ± 0.063 |  |  |  |  |  |  | 
42 | YSPSCPRTSPLL | 0.726 ± 0.046 |  |  |  |  |  |  | 
43 | YSQSRPYFRIPG | 0.647 ± 0.029 |  |  |  |  |  |  | 
44 | YSSGKPMEITIA | 0.678 ± 0.084 |  |  |  |  |  |  | 
45 | YTHIRGVLFGVR | 0.704 ± 0.034 |  |  |  |  |  |  | 
46 | YTSHPVLPEVNG | 0.695 ± 0.035 |  |  |  |  |  |  | 
47 | YTSTPTLYTRLW | 0.689 ± 0.014 |  |  |  |  |  |  | 
48 | YTWHKLFFAYAI | 0.528 ± 0.0059 |  |  |  |  |  |  | 
49 | YVLSVKEGTNLP | 0.709 ± 0.023 |  |  |  |  |  |  | 
50 | YVSYVFDYEVRH | 0.709 ± 0.051 |  |  |  |  |  |  | 
51 | YVTSKLMNLVLY | 0.662 ± 0.066 |  |  |  |  |  |  | 
52 | YVVWGGVQGSVL | 0.747 ± 0.046 |  |  |  |  |  |  | 
53 | YWSFRKGGLALY | 0.651 ± 0.019 |  |  |  |  |  |  | 
